Measured values: patent US5246838A, “Processing of proteins” (priority 1990, dated 1993)

Tests used:
[1] = tested on: E. coli cells containing pSPB plasmids (beta-lactamase with the indicated signal peptide); assay: Ampicillin resistance in E. coli carrying pSPB plasmids (colony formation); assay type: cell-based
Source text: described in Materials and Methods. Resistance to ampicillin was defined
as the maximal concentration of the antibiotic at which 100% of the E.
coli cells could form colonies. Plasmids indicated by pSPA . . . contain
amylase with the indicated signal peptide, plasmids indicated by pSPB . .
. contain lactamase with the indicated signal peptide.

[2] = molecular target: pre(A13i)-β-lactamase (B. subtilis; E. coli) (UniProt P62593)
[3] = molecular target: wild-type TEM pre-β-lactamase (E.coli) (UniProt P62593)
[4] = molecular target: truncated pre-β-lactamase (E.coli) (UniProt P62593)
[5] = molecular target: pre(A42)-β-lactamase (E. coli) (UniProt P62593)
[6] = molecular target: pre(A13i)-β-lactamase (B. subtilis; E. coli) (UniProt P62593); details: scale: % of all the
[7] = molecular target: pre(A2)-β-lactamase (E. coli) (UniProt P62593)
[8] = molecular target: pre(A2d)-β-lactamase (E. coli) (UniProt P62593)

`CC1(C)S[C@@H]2[C@H](NC(=O)[C@H](N)c3ccccc3)C(=O)N2[C@H]1C(=O)O` [ampicillin] was tested, and the “E. coli amp. resist. (maximal concentration of the antibiotic at which 100% of the E. coli cells could form colonies)” value ([1]; E. coli containing pSPB-A2) was 300 µg/mL, the “E. coli amp. resist. (maximal concentration of the antibiotic at which 100% of the E. coli cells could form colonies)” value ([1]; E. coli containing pSPB-A13) was 300 µg/mL and the “E. coli amp. resist. (maximal concentration of the antibiotic at which 100% of the E. coli cells could form colonies)” value ([1]; E. coli containing pSPB-A13i) was 100 µg/mL. The “E. coli amp. resist. (maximal concentration of the antibiotic at which 100% of the E. coli cells could form colonies)” value ([1]; E. coli containing pSPB-A42) was 20 µg/mL, the “E. coli amp. resist. (maximal concentration of the antibiotic at which 100% of the E. coli cells could form colonies)” value ([1]; E. coli containing pSPB-A2d) was 500 µg/mL and the “E. coli amp. resist. (maximal concentration of the antibiotic at which 100% of the E. coli cells could form colonies)” value ([1]; E. coli containing pSPB-A42d) was 100 µg/mL.
In the case of B. subtilis SPase I (enzyme), the t50, time necessary to obtain equal amounts of the precursor and the mature forms, pulse-chase labeling in B. subtilis DB104 [2] is reported as 6 min.
Compound “E.coli SPase I (signal peptidase I) (from UniProt P00803) (enzyme)” has a fraction unprocessed wildtype (P) lactamase, pulse-chase labeling, samples 15 s after the chase [3] of 15%, a fraction unprocessed truncated (P') lactamase, pulse-chase labeling, samples 15 s after the chase [4] of 63% and a t50, time necessary to process 50% of the precursor, pulse-chase labeling in E.coli C600 [5] of 15 min. The relative amount of mature enzyme, pulse-chase labeling in E.coli C600 [6] was 6 to 7, the t50, time necessary to process 50% of the precursor, pulse-chase labeling in E.coli C600 [7] was 2.2 min and the t50, time necessary to process 50% of the precursor, pulse-chase labeling in E.coli C600 [8] was < 1 min.
In the case of S.typhimurium SPase I (enzyme), the fraction unprocessed wildtype (P) lactamase, pulse-chase labeling, samples 15 s after the chase [3] is reported as 16% and the fraction unprocessed truncated (P') lactamase, pulse-chase labeling, samples 15 s after the chase [4] is reported as 60%.
